Consider 2 molecules from patent publication US9969998B2, “Compositions of adenosine deaminase-2 (ADA2), variants thereof and methods of using same” (Halozyme, Inc., priority 2014, dated 2018).

Numbering of substitutions follows the chain as printed. Names may count otherwise.

For data set [1] the following is noted: adenosine deaminase activity; listed as wildtype ADA2; cited from earlier work.
Data set [2] is described as follows: Thermal stability, melting temperature (Tm) by differential scanning fluorimetry. The data set is classed as physicochemical. Particulars: compared to ADA1. The text has this:
Proteins differ in their degrees of thermal stability (or thermostability). In particular, proteins with biological activities, such as enzymes, can have different optimal temperatures. Thermostability, the quality of a protein to resist irreversible change in its chemical or physical structure at a relatively high temperature, can be indicative of overall stability of a protein. Increased temperature usually induces protein unfolding, and disruption of secondary, tertiary and quaternary structure of proteins, leading to destabilization of protein. Thermostability of a protein, such as any ADA2 polypeptide provided herein, can be determined by measuring the changes in enzymatic activity and/or other physical properties, before and after incubation in relatively high or low temperatures.
The stability of a protein can be determined by measuring the activity of the protein as a function of time. The melting temperature (Tm) of the protein can be used as a marker of solution stability and in vivo stability for proteins. The unfolding temperature of a particular protein refers to that temperature at which the protein loses its secondary structure and typically, its activity and can be determined using methods known to those of skill in the art and described herein, such as differential scanning calorimetry […]. […] In other examples, the thermal stability can be measured biochemically. […]
A general note: In DSF a fluorescence change marks the thermal transition of the protein.

Data set [3] can be described thus: Distribution in normal organs of naive mice vs. CT26 tumors (IVIS). The data set is classed as in vivo, Balb/c mice. Particulars: 24 hr; for (Fluorescent intensity/Tissue Weight) - Baseline: 0.5 mg/kg IV. The method, then:
To assess the distribution and elimination of administered PEG-ADA2-K374D in the tumor microenvironment or in normal organs, immunofluorescence was used to assess the presence of PEG-ADA2-K374D administered to mice. PEG-ADA2-K374D was labeled at room temperature for 60 minutes with DyLight755 Sulfydryl-Reactive Dye (DL755), a near-IR fluor, using the DyLight 755 Antibody Labeling Kit (Thermo Scientific, Rockford, Ill.). Alexa Fluor 750 (AF 750) labeled bovine serum albumin (BSA, 1 mg/mL) was purchased from (Life Technology, Carlsbad, Calif.).
To compare the distribution in naïve mice, CT26-tumor bearing mice were generated as described above, and were intravenously administered PEG-ADA2-K374D^DL755 at 0.5 mg/kg (n=3). Separately, naïve Balb/c mice also were intravenously administered PEG-ADA2-K374D^DL755 at 0.5 mg/kg (n=4). The mice were sacrificed and transcardically perfused with heparin normal saline 24 hours post PEG-ADA2-K374D^DL755 injection. Tumors from tumor-bearing mice and organs from naïve mice were collected and imaged with IVIS image system, and DL755 signal intensity was measured with LivingImage software as described above. Signal intensity was normalized by tissue organ weight.

B1: ADA2: wild-type human adenosine deaminase 2, mature form SEQ ID NO:5, homodimer (protein, listed as Homo sapiens)
chain: IDETRAHLLLKEKMMRLGGRLVLNTKEELANERLMTLKIAEMKEAMRTLIFPPSMHFFQAKHLIERSQVFNILRMMPKGAALHLHDIGIVTMDWLVRNVTYRPHCHICFTPRGIMQFRFAHPTPRPSEKCSKWILLEDYRKRVQNVTEFDDSLLRNFTLVTQHPEVIYTNQNVVWSKFETIFFTISGLIHYAPVFRDYVFRSMQEFYEDNVLYMEIRARLLPVYELSGEHHDEEWSVKTYQEVAQKFVETHPEFIGIKIIYSDHRSKDVAVIAESIRMAMGLRIKFPTVVAGFDLVGHEDTGHSLHDYKEALMIPAKDGVKLPYFFHAGETDWQGTSIDRNILDALMLNTTRIGHGFALSKHPAVRTYSWKKDIPIEVCPISNQVLKLVSDLRNHPVATLMATGHPMVISSDDPAMFGAKGLSYDFYEVFMGIGGMKADLRTLKQLAMNSIKYSTLLESEKNTFMEIWKKRWDKFIADVATK
modifications: ADA2 mature protein
With B1, the pH optimum in data set [1] was approximately 6.5. Moreover, the thermal stability result in data set [2] is given as “higher thermal stability”.

B2: PEG-K374D: rHuADA2-K374D (SEQ ID NO:20) PEGylated on surface exposed lysines with linear PEG-20K (conjugate)
chain: B1 chain with K371D
modifications: linear PEG-20K on surface lysines; human ADA2 K371D, mature numbering
Consider B2, for which the “(Fluorescent intensity/Tissue Weight) - Baseline” value in data set [3] (Bone, naive mice) is on record as 1.82E+06; in data set [3] (Brain, naive mice), 2.11E+05; in data set [3] (Colon, naive mice) it was 9.13E+05; in data set [3] (Heart, naive mice), 5.55E+05; in data set [3] (Kidney, naive mice), 8.61E+05; in data set [3] (Liver, naive mice) it was 4.02E+06. The “(Fluorescent intensity/Tissue Weight) - Baseline” value in data set [3] (Lung, naive mice) was determined as 1.22E+06; in data set [3] (Spleen, naive mice), 2.98E+06; in data set [3] (Tumor, CT26 tumor-bearing mice), 6.22E+06. The “Signal Intensity (Tumor vs Organ)” value in data set [3] (ratio tumor/Bone) was 3.4; in data set [3] (ratio tumor/Brain), 29.5; in data set [3] (ratio tumor/Colon), 6.8; in data set [3] (ratio tumor/Heart) it was 11.2; in data set [3] (ratio tumor/Kidney), 7.2; in data set [3] (ratio tumor/Liver), 1.5. Moreover, the “Signal Intensity (Tumor vs Organ)” value in data set [3] (ratio tumor/Lung) amounted to 5.1; in data set [3] (ratio tumor/Spleen) it was 2.1.
